From the nanobody polyreactivity screen of Harvey et al. (2022)

Experiment: yeast display, Sf9 membrane polyspecificity reagent, FACS + sequencing; frameworks hold sequencing errors
Outline: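 Synthetic nanobody libraries on Saccharomyces cerevisiae BJ5465 were galactose-induced for 36–48 hours, stained 1 hour at 4 °C with 10% biotinylated, detergent-solubilized Sf9 membrane reagent and enriched on streptavidin microbeads. FACS then separated cells into low and high (top ~1%) gates by anti-HA (expression) and streptavidin (reagent binding) fluorescence. Genes were colony-PCR amplified, MiSeq 2 × 250 sequenced and CDR-length filtered. A clone's polyreactivity label is that of its gate of origin.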
For “QVQLVESGGGLVQAGGSLRLSCAASGFTFQSNAMGWYRQAPGKERELVATISLTGGSTYYADSVKGRFTISRDNAKNTVYLQMNSLKPEDTAVYYCNAVRYASPYGYWGQGTQVTVSS”, the “polyreactivity (PSR sort gate)” value was “high polyreactivity”.
For “QVQLVESGGGLVQAGGSLRLSCAASGFTFQYYAMGWYRQAPGKERELVAAISRSGGSTYYADSVKGRFTISRDNAKNTVYLQMNSLKPEDTAVYYCAKDRVGARRTDYDYWGQGTQVTVSS”, the “polyreactivity (PSR sort gate)” value was “high polyreactivity”.
For “QVQLVESGGGLVQAGGSLRLSCAASGFTFQYYTMGWYRQAPGKERELVAAISGSGGRTYYADSVKGRFTISRDNAKNTVYLQMNSLKPEDTAVYYCAKVYNRVYYGKGDYWGQGTQVTVSS”, the “polyreactivity (PSR sort gate)” value was “high polyreactivity”.
In the case of “QVQLVESGGGLVQAGGSLRLSCAASGFTFRANGMGWYRQATGKERELVATITSGGTTNYADSVKGRFTISRDNAKNTVYLQMNSLKPEDTAVYYCAKRFGPAYFRLYDYWGQGTQVTVSS”, the “polyreactivity (PSR sort gate)” value is reported as “low polyreactivity”.
For “QVQLVESGGGLVQAGGSLRLSCAASGFTFRAYAMGWYRQAPGKEREFVAAISRRGGSTSYADSVKGRFTISRDIAKNTVYLQMNSQKPEDTSVYYCAADVQEEYDYWGQGTQVTVSS”, the “polyreactivity (PSR sort gate)” value was “high polyreactivity”.
In the case of “QVQLVESGGGLVQAGGSLRLSCAASGFTFRAYAMGWYRQAPGKERELVAAINISGGSTYYADSVKGRFTISRDNAKNTVYLQMNSLKPEDTAVYYCAADWPEDWYTEYGYWGQGTQVTVSS”, the “polyreactivity (PSR sort gate)” value is reported as “low polyreactivity”.
With “QVQLVESGGGLVQAGGSLRLSCAASGFTFRAYAMGWYRQAPGKERELVAAITSGTRTYYADSVKGRFTISRDNAKNTVYLQMNSLKPEDTAVYDCAVGFILPSTFTRMYYWGQGTQVTVSS” the “polyreactivity (PSR sort gate)” value was “high polyreactivity”.
In the case of “QVQLVESGGGLVQAGGSLRLSCAASGFTFRAYAMGWYRQAPGKERELVAGITRSGGSTHYADSVKGRFTISRDNAKNTVYLQMNSLKPEDTAVYYCNARYPYRGKRKPPDYWGQGTQVTVSS”, the “polyreactivity (PSR sort gate)” value is reported as “high polyreactivity”.
For “QVQLVESGGGLVQAGGSLRLSCAASGFTFRAYTMGWYRQAPGKERELVAAITYSGGRTYYADSVKGRFTISRDNAKNTVYLQMNSLKPEDTAVYYCATRGWALSEYYYWGQGTQVTVSS”, the “polyreactivity (PSR sort gate)” value was “high polyreactivity”.
In the case of “QVQLVESGGGLVQAGGSLRLSCAASGFTFRAYTMGWYRQAPGTERGLVAAITYSGGRTYYADSVKGRFTISRDNAKNTVYLQMNSLKPEDTAVYYCAAVRTKVWRGPEMDYWGQGTQVTVSS”, the “polyreactivity (PSR sort gate)” value is reported as “high polyreactivity”.
With “QVQLVESGGGLVQAGGSLRLSCAASGFTFRAYVMGWSRQAPGKERELVAAISRSGGSTYYADSVKGRLTISRDNAKNTVYLQMNSLKPEDTAVYYCAAGVPGPRVKIQARFDYWGQGTQVTVSS” the “polyreactivity (PSR sort gate)” value was “high polyreactivity”.
For “QVQLVESGGGLVQAGGSLRLSCAASGFTFRDYAMGWSRQAPGKERELVAAISRSGDSTYYADSVKGRFTISRDNAKNTVYLQMNSLKPEDTAVYYYAAKRRYTTYDYWGQGTQVTVSS”, the “polyreactivity (PSR sort gate)” value was “high polyreactivity”.
In the case of “QVQLVESGGGLVQAGGSLRLSCAASGFTFRDYAMGWYRQAPGKEREFIADITFSGDNTRYADSVKGRFTISRDNAKNTVYLQMNSLKREDTAVYYCNADYLVSWLQFDYWGQGTQVTVSS”, the “polyreactivity (PSR sort gate)” value is reported as “low polyreactivity”.
In the case of “QVQLVESGGGLVQAGGSLRLSCAASGFTFRDYAMGWYRQAPGKERELVAAISFSGGRTFYADSVKGRFTISRDNAKNTVYLQMNSLKPEDTAVYYCNAQYLTYRYYPRRNLDYWGQGTQVTVSS”, the “polyreactivity (PSR sort gate)” value is reported as “high polyreactivity”.
For “QVQLVESGGGLVQAGGSLRLSCAASGFTFRFNAMGWYIQAPGKERELVAAIRQSGGSTYYADSVKGRFTISRDNAKNTVYLQMNSLKPEDTAVYYCATRYFTGYGLRPQFYYWGQGTQVTVSS”, the “polyreactivity (PSR sort gate)” value was “high polyreactivity”.
In the case of “QVQLVESGGGLVQAGGSLRLSCAASGFTFRGNAMGLYRQAPRKERELVATITYNAGSTYYADSVKGRFTISRDNAKNTVYLQMNSLKPEDTAVYYCAVELDSVPDYEPWTEYDYWGQGTQVTVSS”, the “polyreactivity (PSR sort gate)” value is reported as “low polyreactivity”.
In the case of “QVQLVESGGGLVQAGGSLRLSCAASGFTFRGYAMGWYRPAPGKERELVAAIRGGGGRTYYADSVKGRFTISRDNAKNTVYLQMNSLKPEDTAVYYCAKVVSIRNDEYDYWGQGTQVTVSS”, the “polyreactivity (PSR sort gate)” value is reported as “high polyreactivity”.
In the case of “QVQLVESGGGLVQAGGSLRLSCAASGFTFRGYAMGWYRQAPGKERELVADITSGGSTYYADSVKGRFTISRDNAKNTVYLQMNSLKPEDTAVYYFATDILYWSDYAYEGYYTLDYYWGQGTQVTVSS”, the “polyreactivity (PSR sort gate)” value is reported as “high polyreactivity”.
In the case of “QVQLVESGGGLVQAGGSLRLSCAASGFTFRGYVMGGYRQAPGKERELVAAITNIGTSTYYAHSVKGRFTISRDNAKNTVYVQMNSLKPEDTGVFFCAARLSTKFYYWGQVTQVTVSS”, the “polyreactivity (PSR sort gate)” value is reported as “low polyreactivity”.
In the case of “QVQLVESGGGLVQAGGSLRLSCAASGFTFRHNGMGWYIQAPGKERELVATITWSGGRTSYADSVKGRFTISRDNAKNTVYLQMNSLKPEDTAVYYCAARFFSYSQYAYNYWGQGTQVTVSS”, the “polyreactivity (PSR sort gate)” value is reported as “high polyreactivity”.
For “QVQLVESGGGLVQAGGSLRLSCAASGFTFRIYAMGWYRQAPGKERELVAAITSSGGTTYYADSVKGRFTISRDNAKNTVYLQMNSLKPEDTAVYYCNVAGFKYYSWGTYDYWGQGTQVTVSS”, the “polyreactivity (PSR sort gate)” value was “high polyreactivity”.
For “QVQLVESGGGLVQAGGSLRLSCAASGFTFRIYAMGWYRQAPGKERELVAAITSVGSTYYADSVKGRFTISRDNAKNTVYLQMNRLKPEDTAVYYCNARATYYRFRYPYGYWGQGTQVTVSS”, the “polyreactivity (PSR sort gate)” value was “high polyreactivity”.
For “QVQLVESGGGLVQAGGSLRLSCAASGFTFRIYTMGWYRQAPGKERELVAAISSRGGSTYYADSVKGRFTISRDNAKNTVDLQMNSLKPEDTAVYYCAASGRVYSSGYDYWGQGTQVTVSS”, the “polyreactivity (PSR sort gate)” value was “high polyreactivity”.
With “QVQLVESGGGLVQAGGSLRLSCAASGFTFRKYAMGWYRQAPGKERELVASITSGGSTYYADSVKGRFTISRDNAKNTVYLQMNSLKPEDTAVYYCNAVKATLASGRLRGAYYYWGQGTQVTVSS” the “polyreactivity (PSR sort gate)” value was “high polyreactivity”.
With “QVQLVESGGGLVQAGGSLRLSCAASGFTFRQYALGWYRQAPGKERELVAAISSGGSTYYADSVKGRFTISRDNAKNTVYLQMNSLKPEDTAVYYCNAVARYYVAYDMYWGQGTQVTVSS” the “polyreactivity (PSR sort gate)” value was “high polyreactivity”.
For “QVQLVESGGGLVQAGGSLRLSCAASGFTFRQYSMGWYRQARGKERELVAGISSSGGSTRYADSVKGRFTISRDNAKNTVYFQMNSLKPEDTAVYYCAARIASHHYYYWGQVTQVTVSS”, the “polyreactivity (PSR sort gate)” value was “high polyreactivity”.
With “QVQLVESGGGLVQAGGSLRLSCAASGFTFRRNAMGWYRQAPGKERELVAAITGRGTGTYYADSVKGRFTISRDNAKNTVYLQMNSLKPEDTAVYYCNADPVRYLFTRYDYWGQGTQVTVSS” the “polyreactivity (PSR sort gate)” value was “high polyreactivity”.
With “QVQLVESGGGLVQAGGSLRLSCAASGFTFRRNAMGWYRQAPGKERELVAVITTAGSTNYADSVKGRFTISRDNAKNTVYLQMTSLKPEDTAVYYCATDNGTRKRRYDYWGQGTQVNVSS” the “polyreactivity (PSR sort gate)” value was “low polyreactivity”.
For “QVQLVESGGGLVQAGGSLRLSCAASGFTFRRNVMGWYRQAPGKERELVAAIRGSDGSTYYADSVKGRFTISRDNAKNTVYLQMNSLKPEDTAVYYCNVVGKGLYRKMGYWGQGTQVTVSS”, the “polyreactivity (PSR sort gate)” value was “high polyreactivity”.
In the case of “QVQLVESGGGLVQAGGSLRLSCAASGFTFRRYAMGWYRQAPGKERELVAGITGRGGSTYYADSVKGRFTISRDNSKNTVYLQMNSLKPEDTAVYYCNKPRAARGYLTGQLDYWGQGTQVTVSS”, the “polyreactivity (PSR sort gate)” value is reported as “high polyreactivity”.
